Experimental data taken from patent publication US9212231B2, “TRAIL R2-specific multimeric scaffolds” (MEDIMMUNE, LLC, dated 2015).
Several values for one entry are separate records, joined by “and”; a condition that tells them apart may be missing. Equal entries are not always repeated.

Experiments:
[1] = target: Murine CD40L on the Th2 cell line D10.G4.1 (murine) (UniProt P27548)
[2] = target: Murine CD40L on the Th2 cell line D10.G4.1 (murine, UniProt P27548); test: cell-based or functional assay
[3] = target: recombinant Murine CD40L (E. coli produced) (murine, UniProt P27548); test: biosensor competition: inhibition of Murine CD40L (0.5 µg/ml) binding to immobilised Murine CD40-Fc
[4] = target: TRAIL R2-Fc fusion protein (human) (UniProt O14763); test: competition ELISA on plate-coated A9(1C12)
[5] = target: TRAIL R2-Fc fusion protein (human) (UniProt O14763); test: competition ELISA: inhibition of binding of 0.75 nM biotinylated TRAIL R2-Fc to plate-coated A9(1C12)
[6] = target: TRAIL R2 (recombinant, form not given) (human, UniProt O14763, biotin (in the capture ELISA and the competition ELISA of Example 14)); test: SPR (ProteOn XPR36), TRAIL R2 immobilised, equilibrium analysis
[7] = target: TRAIL R2 expressed on the cell surface (human, UniProt O14763); test: cell-based or functional assay

TRAIL R2-Fc fusion protein (human), sequence (O14763 56-182 limits assumed): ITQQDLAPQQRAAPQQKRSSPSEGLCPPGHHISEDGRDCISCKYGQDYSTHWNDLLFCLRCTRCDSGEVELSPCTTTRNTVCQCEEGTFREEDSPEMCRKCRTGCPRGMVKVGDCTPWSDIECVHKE

MR1 antibody
IC50, inhibition of Murine CD40L-induced CD86 expression on CD19 gated B cells [1]: 100000 nM

B1: C3(M13) (designed binder)
chain: AIEVKDVTDTTALITWHDAFGYDFGCELTYGIKDVPGDRTTIDLPDHFHNYSIGNLKPDTEYEVSLICANDHGFDSNPAKETFTTGGGGSGGGGSGGGGSGGGGSGGGGSRLDAPGQIEVKDVTDTTALITWHDAFGYDFGCELTYGIKDVPGDRTTIDLPDHFHNYSIGNLKPDTEYEVSLICANDHGFDSNPAKETFTTGGGTLGHHHHHHHH
IC50, inhibition of Murine CD40L-induced CD86 expression on CD19 gated B cells [2]: 100000 to 200000 nM
IC50 [3]: 5 nM and 6 nM

B2: A2(1E11) (designed binder)
chain: SGGGGSAIEVKDVTDTTALITWAKPWVDPPPLWGCELAYGIKDVPGDRTTIDLQQKHTAYSIGNLKPDTEYEVSLICFDPYGAKSNPAKETFTTGGGGSGGGGSGGGGSAIEVKDVTDTTALITWAKPWVDPPPLWGCELAYGIKDVPGDRTTIDLQQKHTAYSIGNLKPDTEYEVSLICFDPYGAKSNPAKETFTTGGGGSGGGGSGTLGHHHHHHHH
fold higher affinity relative to the monomeric A1 protein [4]: 30 to 40 fold
fold lower IC50 than the monomer A1 [4]: > 30 fold
IC50 [5]: 0.5 nM

B3: C4(M13) (designed binder)
chain: AIEVKDVTDTTALITWHDAFGYDFGCELTYGIKDVPGDRTTIDLPDHFHNYSIGNLKPDTEYEVSLICANDHGFDSNPAKETFTTGGGGSGGGGSGGGGSGGGGSGGGGSGGGGSGGGGSRLDAPGQIEVKDVTDTTALITWHDAFGYDFGCELTYGIKDVPGDRTTIDLPDHFHNYSIGNLKPDTEYEVSLICANDHGFDSNPAKETFTTGGGTLGHHHHHHHH
IC50, inhibition of Murine CD40L-induced CD86 expression on CD19 gated B cells [2]: 100000 to 200000 nM
IC50 [3]: 5 nM and 6 nM

B4: C2(M13) (designed binder)
chain: AIEVKDVTDTTALITWHDAFGYDFGCELTYGIKDVPGDRTTIDLPDHFHNYSIGNLKPDTEYEVSLICANDHGFDSNPAKETFTTGGGGSGGGGSGGGGSRLDAPGQIEVKDVTDTTALITWHDAFGYDFGCELTYGIKDVPGDRTTIDLPDHFHNYSIGNLKPDTEYEVSLICANDHGFDSNPAKETFTTGGGTLGHHHHHHHH
IC50, inhibition of Murine CD40L-induced CD86 expression on CD19 gated B cells [2]: 100000 to 200000 nM
IC50 [3]: 5 nM and 6 nM

B5: A1(1E11) (designed binder)
chain: AIEVKDVTDTTALITWAKPWVDPPPLWGCELAYGIKDVPGDRTTIDLQQKHTAYSIGNLKPDTEYEVSLICFDPYGAKSNPAKETFTTGGGTLGHHHHHHHH
Fold Improvement (Kd, against lead clone 1C12) [6]: 40 fold
Kd [6]: 103 nM
IC50 [5]: 16 nM

B6: A3(1E11) (designed binder)
chain: SGGGGSAIEVKDVTDTTALITWAKPWVDPPPLWGCELAYGIKDVPGDRTTIDLQQKHTAYSIGNLKPDTEYEVSLICFDPYGAKSNPAKETFTTGGGGSGGGGSGGGGSAIEVKDVTDTTALITWAKPWVDPPPLWGCELAYGIKDVPGDRTTIDLQQKHTAYSIGNLKPDTEYEVSLICFDPYGAKSNPAKETFTTGGGGSGGGGSGGGGSAIEVKDVTDTTALITWAKPWVDPPPLWGCELAYGIKDVPGDRTTIDLQQKHTAYSIGNLKPDTEYEVSLICFDPYGAKSNPAKETFTTGGGGSGGGGSGGGGSAIEVKDVTDTTALITWAKPWVDPPPLWGCELAYGIKDVPGDRTTIDLQQKHTAYSIGNLKPDTEYEVSLICFDPYGAKSNPAKETFTTGGGGSGGGGSGTLGHHHHHHHH
EC50, killing of H2122 cells [7]: 0.013 nM
Maximum Inhibition %, H2122 cells [7]: 91%
fold higher affinity relative to the monomeric A1 protein [4]: 30 to 40 fold
fold lower IC50 than the monomer A1 [4]: > 30 fold
IC50 [5]: 0.4 nM
